Assay results: patent US20110135672A1

Key:
[1] = target: ILT4 receptor on dendritic cells of ILT4 transgenic mice (UniProt Q8N423); assay: cell-based or functional assay
[2] = target: ILT2-PILRβ chimera on NFAT-GFP reporter cells (UniProt Q8NHL6); assay: cell-based or functional assay
Chain of ILT2-PILRβ chimera on NFAT-GFP reporter cells (Q8NHL6 24-461, change not shown): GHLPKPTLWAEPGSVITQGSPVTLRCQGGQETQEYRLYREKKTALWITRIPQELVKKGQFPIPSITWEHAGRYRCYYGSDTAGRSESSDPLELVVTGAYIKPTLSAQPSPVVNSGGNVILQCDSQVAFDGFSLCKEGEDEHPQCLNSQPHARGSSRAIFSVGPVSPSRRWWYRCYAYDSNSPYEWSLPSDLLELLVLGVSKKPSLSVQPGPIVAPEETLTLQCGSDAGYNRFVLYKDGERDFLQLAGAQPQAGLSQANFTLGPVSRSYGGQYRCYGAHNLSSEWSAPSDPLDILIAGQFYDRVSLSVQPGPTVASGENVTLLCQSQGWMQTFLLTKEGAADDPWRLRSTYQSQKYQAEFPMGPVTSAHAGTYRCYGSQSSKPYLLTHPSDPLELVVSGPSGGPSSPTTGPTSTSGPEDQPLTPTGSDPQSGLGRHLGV

Chain of ILT4 receptor on dendritic cells of ILT4 transgenic mice (Q8N423 22-597 limits assumed): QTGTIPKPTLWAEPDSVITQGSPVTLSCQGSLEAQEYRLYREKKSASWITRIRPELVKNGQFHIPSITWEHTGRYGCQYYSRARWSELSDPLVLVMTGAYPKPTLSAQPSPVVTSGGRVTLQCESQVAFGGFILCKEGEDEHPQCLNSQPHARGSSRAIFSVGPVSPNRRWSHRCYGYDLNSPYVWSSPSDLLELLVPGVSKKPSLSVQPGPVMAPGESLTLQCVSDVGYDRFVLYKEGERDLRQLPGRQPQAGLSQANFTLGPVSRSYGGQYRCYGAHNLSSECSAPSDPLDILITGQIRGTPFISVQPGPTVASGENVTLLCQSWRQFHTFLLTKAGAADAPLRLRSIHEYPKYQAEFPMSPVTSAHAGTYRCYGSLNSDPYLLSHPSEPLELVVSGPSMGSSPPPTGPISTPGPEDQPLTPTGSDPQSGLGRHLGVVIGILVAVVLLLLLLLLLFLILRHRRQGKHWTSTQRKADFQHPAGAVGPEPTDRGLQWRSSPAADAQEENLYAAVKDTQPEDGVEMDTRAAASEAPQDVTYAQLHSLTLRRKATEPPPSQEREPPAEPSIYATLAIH

fold increase of IL-6 transcript in ILT4-positive BMDCs (gene array) [1] [fold] | MFI of GFP at 100 ng/ml immobilized ligand (NFAT-GFP reporter) [2] [MFI] | percentage of GFP-positive cells at 100 ng/ml immobilized ligand (NFAT-GFP reporter) [2] [%] | mean fluorescent intensity (MFI) of GFP at 100 ng/ml immobilized ligand (NFAT-GFP reporter) [2] [MFI] | Substance
9.3 |  |  |  | HLA-G1 tetrameric complexes (from UniProt P17693 25-300; P61769 21-119) (ligand)
8.9 | 9.9 | 56.8 |  | HLA-G5 dimer (from UniProt P17693 25-338; P61769 21-119) (ligand)
 |  | 5.6 | 7.8 | HLA-G5 monomer (from UniProt P17693 25-338; P61769 21-119) (ligand)
